# Source: patent US20240392262A1, “TRANSPOSASE AND USES THEREOF” (Poseida Therapeutics, Inc., published 2024)
# T1: GFP1 Left TAL-PBx (synthetic construct)
# T1 chain: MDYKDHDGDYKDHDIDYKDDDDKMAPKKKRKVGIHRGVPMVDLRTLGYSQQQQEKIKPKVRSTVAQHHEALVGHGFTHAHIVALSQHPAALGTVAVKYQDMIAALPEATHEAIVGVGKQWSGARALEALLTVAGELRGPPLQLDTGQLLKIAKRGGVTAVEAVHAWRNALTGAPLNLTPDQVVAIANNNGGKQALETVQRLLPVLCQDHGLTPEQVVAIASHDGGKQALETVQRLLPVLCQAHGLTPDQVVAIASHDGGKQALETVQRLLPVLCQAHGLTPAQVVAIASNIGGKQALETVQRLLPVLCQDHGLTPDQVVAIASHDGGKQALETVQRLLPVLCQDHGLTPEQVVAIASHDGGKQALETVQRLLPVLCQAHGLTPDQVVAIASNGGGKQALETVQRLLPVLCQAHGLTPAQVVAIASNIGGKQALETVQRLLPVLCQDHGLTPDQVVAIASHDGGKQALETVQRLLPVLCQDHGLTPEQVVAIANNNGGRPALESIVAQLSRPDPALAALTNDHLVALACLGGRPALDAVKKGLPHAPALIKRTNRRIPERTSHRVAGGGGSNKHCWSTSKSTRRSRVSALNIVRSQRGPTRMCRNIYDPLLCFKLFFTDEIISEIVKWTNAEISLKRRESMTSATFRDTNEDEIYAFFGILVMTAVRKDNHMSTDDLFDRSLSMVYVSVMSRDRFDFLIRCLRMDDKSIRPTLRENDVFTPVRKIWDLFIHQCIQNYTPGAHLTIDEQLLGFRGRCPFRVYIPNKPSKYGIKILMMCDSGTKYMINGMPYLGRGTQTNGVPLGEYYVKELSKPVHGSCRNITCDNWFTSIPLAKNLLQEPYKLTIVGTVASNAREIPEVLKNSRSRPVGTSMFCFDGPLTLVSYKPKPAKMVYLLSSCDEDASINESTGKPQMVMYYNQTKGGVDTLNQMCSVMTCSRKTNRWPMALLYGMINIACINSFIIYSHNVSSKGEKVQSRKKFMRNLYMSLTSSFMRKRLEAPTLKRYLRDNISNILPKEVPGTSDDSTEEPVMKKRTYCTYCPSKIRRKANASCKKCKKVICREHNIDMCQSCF
# T2: GFP2 Left TAL-PBx (synthetic construct)
# T2 chain: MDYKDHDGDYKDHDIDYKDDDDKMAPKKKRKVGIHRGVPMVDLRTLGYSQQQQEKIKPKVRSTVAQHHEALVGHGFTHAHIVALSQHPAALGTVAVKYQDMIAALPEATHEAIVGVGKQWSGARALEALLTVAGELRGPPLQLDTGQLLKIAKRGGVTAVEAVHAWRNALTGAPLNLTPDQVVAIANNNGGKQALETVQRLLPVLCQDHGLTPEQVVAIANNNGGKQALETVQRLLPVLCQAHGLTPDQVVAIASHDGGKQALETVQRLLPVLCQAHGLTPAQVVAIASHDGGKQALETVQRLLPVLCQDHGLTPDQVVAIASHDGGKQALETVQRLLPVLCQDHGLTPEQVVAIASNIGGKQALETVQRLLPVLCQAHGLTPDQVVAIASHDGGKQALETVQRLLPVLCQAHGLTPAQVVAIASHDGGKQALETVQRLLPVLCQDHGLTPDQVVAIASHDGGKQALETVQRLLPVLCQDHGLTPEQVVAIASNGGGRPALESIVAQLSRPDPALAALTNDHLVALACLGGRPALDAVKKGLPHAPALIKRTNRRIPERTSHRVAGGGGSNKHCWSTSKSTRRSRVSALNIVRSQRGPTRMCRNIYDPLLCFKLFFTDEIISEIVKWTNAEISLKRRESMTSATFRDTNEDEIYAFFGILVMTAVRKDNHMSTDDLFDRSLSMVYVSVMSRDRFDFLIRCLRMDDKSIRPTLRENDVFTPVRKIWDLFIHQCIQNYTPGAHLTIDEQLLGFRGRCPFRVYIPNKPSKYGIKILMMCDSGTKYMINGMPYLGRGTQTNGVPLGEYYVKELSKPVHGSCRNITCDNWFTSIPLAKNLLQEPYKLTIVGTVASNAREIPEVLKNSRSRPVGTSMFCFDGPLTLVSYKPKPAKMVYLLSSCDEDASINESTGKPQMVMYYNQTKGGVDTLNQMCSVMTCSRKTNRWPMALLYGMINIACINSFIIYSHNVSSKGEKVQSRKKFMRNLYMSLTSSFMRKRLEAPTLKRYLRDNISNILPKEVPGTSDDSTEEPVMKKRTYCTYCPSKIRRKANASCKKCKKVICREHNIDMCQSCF
# T3: GFP2 Right TAL-PBx (synthetic construct)
# T3 chain: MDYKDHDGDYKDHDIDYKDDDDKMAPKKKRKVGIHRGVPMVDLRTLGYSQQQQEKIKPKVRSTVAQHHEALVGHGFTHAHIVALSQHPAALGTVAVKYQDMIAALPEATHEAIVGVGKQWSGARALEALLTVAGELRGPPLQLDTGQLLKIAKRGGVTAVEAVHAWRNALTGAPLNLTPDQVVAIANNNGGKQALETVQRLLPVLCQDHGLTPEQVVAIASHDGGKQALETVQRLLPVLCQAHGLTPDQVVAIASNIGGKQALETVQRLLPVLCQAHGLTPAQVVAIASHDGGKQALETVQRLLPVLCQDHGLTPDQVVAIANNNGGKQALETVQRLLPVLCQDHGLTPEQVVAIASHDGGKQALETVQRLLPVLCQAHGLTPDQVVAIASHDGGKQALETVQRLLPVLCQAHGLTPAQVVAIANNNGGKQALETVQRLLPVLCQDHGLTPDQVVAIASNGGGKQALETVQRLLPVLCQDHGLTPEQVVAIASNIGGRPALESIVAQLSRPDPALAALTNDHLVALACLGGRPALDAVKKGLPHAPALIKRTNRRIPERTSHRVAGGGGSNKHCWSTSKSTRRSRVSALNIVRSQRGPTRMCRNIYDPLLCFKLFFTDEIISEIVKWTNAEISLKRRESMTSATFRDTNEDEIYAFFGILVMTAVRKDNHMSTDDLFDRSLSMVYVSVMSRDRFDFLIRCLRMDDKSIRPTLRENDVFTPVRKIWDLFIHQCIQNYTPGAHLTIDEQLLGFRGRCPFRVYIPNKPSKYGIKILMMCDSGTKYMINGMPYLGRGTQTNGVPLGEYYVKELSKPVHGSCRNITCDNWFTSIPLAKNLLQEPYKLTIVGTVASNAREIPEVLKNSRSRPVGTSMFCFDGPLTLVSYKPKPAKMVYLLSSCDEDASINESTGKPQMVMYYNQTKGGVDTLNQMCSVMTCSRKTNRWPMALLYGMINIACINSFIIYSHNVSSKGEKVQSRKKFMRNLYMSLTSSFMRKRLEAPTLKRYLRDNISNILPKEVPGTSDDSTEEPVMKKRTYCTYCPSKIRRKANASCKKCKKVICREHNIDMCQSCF
# T4: ZFM268 TAL-PBx (synthetic construct)
# T4 chain: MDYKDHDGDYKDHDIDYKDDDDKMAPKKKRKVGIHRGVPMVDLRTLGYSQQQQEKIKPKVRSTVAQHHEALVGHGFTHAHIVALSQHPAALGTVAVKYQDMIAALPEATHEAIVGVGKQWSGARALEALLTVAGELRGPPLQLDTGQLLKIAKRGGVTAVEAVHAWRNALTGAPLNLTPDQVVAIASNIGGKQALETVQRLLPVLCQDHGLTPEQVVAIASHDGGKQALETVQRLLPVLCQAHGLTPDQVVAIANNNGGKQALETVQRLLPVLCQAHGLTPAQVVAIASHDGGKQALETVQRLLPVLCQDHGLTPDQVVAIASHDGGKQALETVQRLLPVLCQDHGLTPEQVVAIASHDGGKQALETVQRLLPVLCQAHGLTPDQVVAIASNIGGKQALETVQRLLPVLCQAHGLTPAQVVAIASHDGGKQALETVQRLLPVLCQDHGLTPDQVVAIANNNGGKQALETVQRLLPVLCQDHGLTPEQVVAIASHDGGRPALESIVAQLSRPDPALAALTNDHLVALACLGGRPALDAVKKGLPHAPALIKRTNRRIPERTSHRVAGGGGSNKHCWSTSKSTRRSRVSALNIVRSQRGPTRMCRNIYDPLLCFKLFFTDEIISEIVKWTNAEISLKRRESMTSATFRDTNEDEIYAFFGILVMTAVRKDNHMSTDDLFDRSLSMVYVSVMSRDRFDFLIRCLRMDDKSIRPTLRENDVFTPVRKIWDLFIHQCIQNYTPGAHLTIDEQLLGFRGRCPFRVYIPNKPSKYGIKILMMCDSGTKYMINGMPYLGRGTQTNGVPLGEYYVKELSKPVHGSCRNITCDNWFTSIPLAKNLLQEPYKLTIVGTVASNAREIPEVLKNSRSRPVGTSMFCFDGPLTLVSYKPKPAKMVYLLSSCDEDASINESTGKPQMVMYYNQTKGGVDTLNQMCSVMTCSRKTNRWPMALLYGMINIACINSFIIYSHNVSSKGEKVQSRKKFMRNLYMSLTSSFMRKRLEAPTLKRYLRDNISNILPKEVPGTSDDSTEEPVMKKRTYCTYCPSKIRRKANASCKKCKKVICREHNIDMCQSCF
# What was measured:
# Test in all cases: cell_activity; split GFP integration
# Conditions in all cases: tags: 3xFlag, SV40 NLS; chain copies: 2
# GFP1 Left TAL-PBx = target: T1, GFP1 Left TAL-PBx
# Procedure: (§1) To determine if the optimal spacer length is consistent from one TAL-ssSPB to the next, similar reporters were constructed with TAL target sites for the GFP1 Left, GFP2 Right, GFP2 Left, and ZFM268 TAL-PBxs as described above. These constructs were tested using a narrower set of spacer lengths of 11 bp, 12 bp, 13 bp, 14 bp, 15 bp constructs for GFP1 Left (SEQ ID Nos. 345-349), GFP2 Left (SEQ ID Nos. 350-354), GFP2 Right (SEQ ID Nos. 355-359) and ZFM268 (SEQ ID NOs: 340-344).
# (§2) Each reporter plasmid and the donor plasmid were cotransfected into HEK293T cells with the corresponding TAL-ssSPB expression plasmid. 120,000 HEK293T cells were plated in 24 well plates in 500 ul of DMEM medium supplemented with 10% FBS. The following day, a transfection mixture containing 50 ng of the TAL-ssSPB expression vector, 225 ng of the reporter plasmid, 225 ng of donor plasmid and 1 μl of JetPrime transfection reagent in a total volume of 50 μl of JetPrime buffer were assembled. The mixture was added to the HEK293T cells and the cells were incubated for four days at 37° C. at 5% CO2, splitting the cells 1:6 at day one. The percentage of on-target site-specific transposition positive cells for the various spacer length constructs were determined by FACS analysis and the results are shown in Table 18.
# GFP2 Left TAL-PBx = target: T2, GFP2 Left TAL-PBx
# Procedure: as §1, §2
# GFP2 Right TAL-PBx = target: T3, GFP2 Right TAL-PBx
# Procedure: as §1, §2
# ZFM268 TAL-PBx = target: T4, ZFM268 TAL-PBx
# Procedure: as §1, §2
binder,measurement,setting,value
GFP1L 12 bp spacer (dsDNA) DNA 1: TGCCACCTACGGCAATCTCCGGCTTAACTACTGACTGAACGTAGGTGGCA DNA 2: TGCCACCTACGTTCAGTCAGTAGTTAAGCCGGAGATTGCCGTAGGTGGCA,activity,GFP1 Left TAL-PBx,13.7 % GFP+
GFP1L 13 bp spacer (dsDNA) DNA 1: TGCCACCTACGGCAATCTCACGGCTTAACTACTGACCTGAACGTAGGTGGCA DNA 2: TGCCACCTACGTTCAGGTCAGTAGTTAAGCCGTGAGATTGCCGTAGGTGGCA,activity,GFP1 Left TAL-PBx,17 % GFP+
GFP2L 12 bp spacer (dsDNA) DNA 1: TGGCCCACCCTGCAATCTCCGGCTTAACTACTGACTGAAAGGGTGGGCCA DNA 2: TGGCCCACCCTTTCAGTCAGTAGTTAAGCCGGAGATTGCAGGGTGGGCCA,activity,GFP2 Left TAL-PBx,22.4 % GFP+
GFP2L 13 bp spacer (dsDNA) DNA 1: TGGCCCACCCTGCAATCTCACGGCTTAACTACTGACCTGAAAGGGTGGGCCA DNA 2: TGGCCCACCCTTTCAGGTCAGTAGTTAAGCCGTGAGATTGCAGGGTGGGCCA,activity,GFP2 Left TAL-PBx,23.5 % GFP+
GFP2R 12 bp spacer (dsDNA) DNA 1: TGCACGCCGTAGCAATCTCCGGCTTAACTACTGACTGAATACGGCGTGCA DNA 2: TGCACGCCGTATTCAGTCAGTAGTTAAGCCGGAGATTGCTACGGCGTGCA,activity,GFP2 Right TAL-PBx,16.9 % GFP+
GFP2R 13 bp spacer (dsDNA) DNA 1: TGCACGCCGTAGCAATCTCACGGCTTAACTACTGACCTGAATACGGCGTGCA DNA 2: TGCACGCCGTATTCAGGTCAGTAGTTAAGCCGTGAGATTGCTACGGCGTGCA,activity,GFP2 Right TAL-PBx,15.8 % GFP+
ZFM268 TAL 12 bp spacer (dsDNA) DNA 1: TACGCCCACGCGCAATCTCCGGCTTAACTACTGACTGAAGCGTGGGCGTA DNA 2: TACGCCCACGCTTCAGTCAGTAGTTAAGCCGGAGATTGCGCGTGGGCGTA,activity,ZFM268 TAL-PBx,21.8 % GFP+
ZFM268 TAL 13 bp spacer (dsDNA) DNA 1: TACGCCCACGCGCAATCTCACGGCTTAACTACTGACCTGAAGCGTGGGCGTA DNA 2: TACGCCCACGCTTCAGGTCAGTAGTTAAGCCGTGAGATTGCGCGTGGGCGTA,activity,ZFM268 TAL-PBx,21.2 % GFP+
